To fix the notation:
B1: VH-3E11 (protein)
VH: QVQLQQSGPGLVKPSQTLSLTCAISGDSVSGNSAAWNWIRQSPSRGLEWLGRTYYRSKWYIGYAASLQSRLAINADTSKNQLSLRLSSVTPEDTAVYYCVGRHYSGHSGAFDTWGHGTMVTVSSSASGAGS
B2: VH-1C5 (protein)
VH: QVQLQQSGPGLVKPSQTLSLTCAISGDSVSSNSAAWNWIRQSPSRGLEWLGRTYYRSKWYNDYAVSVKSRITINPDTSKNQFSLQLNSVTPEDTAVYYCARTPSTGTLDCWGRGTLVTVSSSASGAGS
B3: VH-4D6 (protein)
VH: EVQLVQSGAEVKKPGESLKISCKGSGYSFTSYWIGWVRQMPGKGLEWMGIIYPGDSDTRYSPSFQGQVTISADKSISTAYLQWSSLKASDTAMYYCARLDCSGGSCYYYYYGMDVWGQGTTVTVSSSASGAGS
B4: VH-3B11 (protein)
VH: EVQLVQSGAEVKKPGESLKISCKGSGYSFTSYWIGWVRQMPGKGLEWMGIVYPGDSDTRYSPSFQGQVTISAGKSISTAYLQWSSLKASDTAMYYCARPSMGATTWISAFDIWGQGTTVTVSSSASGAGS
B5: VH-3C2 (protein)
VH: QVQLQQSGPGLVKPSQTLSLTCAISGDSVSSKSAAWNWIRQSPSRGLEWLGRTYYRSKWYNDYVVSLRSRITVSPDTSKNQFSLQLNSVTPEDTAMYYCARTRGHIDLWGRGTLVTVSSSASGAGS

The first test concerns the target Human Serum Albumin (human) (UniProt P02768). In words: BLI (Octet Red), HSA on sensor tips, VH domain in solution, 1:1 fit. On the technique in general: BLI is a label-free optical method that tracks binding on a fibre tip over time.
Sequence of UniProt P02768 (P02768 25-609 limits assumed): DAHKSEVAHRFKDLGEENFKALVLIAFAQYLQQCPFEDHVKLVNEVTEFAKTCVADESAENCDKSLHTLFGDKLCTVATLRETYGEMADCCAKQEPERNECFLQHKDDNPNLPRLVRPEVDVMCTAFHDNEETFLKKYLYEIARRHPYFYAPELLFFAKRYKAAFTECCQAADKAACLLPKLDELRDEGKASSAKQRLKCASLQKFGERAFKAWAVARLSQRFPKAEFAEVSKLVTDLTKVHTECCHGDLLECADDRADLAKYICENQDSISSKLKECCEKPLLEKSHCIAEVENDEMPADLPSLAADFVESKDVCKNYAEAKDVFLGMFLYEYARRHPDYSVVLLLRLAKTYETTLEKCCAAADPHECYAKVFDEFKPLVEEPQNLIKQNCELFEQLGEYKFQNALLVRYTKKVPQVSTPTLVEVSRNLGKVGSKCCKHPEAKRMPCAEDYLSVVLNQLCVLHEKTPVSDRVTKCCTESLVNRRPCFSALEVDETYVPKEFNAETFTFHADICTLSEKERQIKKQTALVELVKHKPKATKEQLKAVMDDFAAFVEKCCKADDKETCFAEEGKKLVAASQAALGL
One may read the Kd as the concentration at which binding is half-saturated. By koff is commonly meant the first-order rate constant of dissociation. One may read the kon as the second-order rate constant of association. Turning to B1, the Kd was 23.6 nM, the koff turned out to be 0.000133 s⁻¹ and the kon was determined as 5630 M⁻¹ s⁻¹.

With B2, the Kd stood at 18.2 nM, the koff is 9.58e-05 s⁻¹ and the kon amounted to 5260 M⁻¹ s⁻¹.

B3 gave a Kd of 13.3 nM, a koff of 0.000141 s⁻¹ and a kon of 10600 M⁻¹ s⁻¹.

Consider B4, for which the Kd was found to be 18.1 nM, the koff was found to be 0.000126 s⁻¹ and the on-rate constant (kon) was determined as 6980 M⁻¹ s⁻¹.

The molecule B5 had a dissociation constant Kd of 23.8 nM, a dissociation rate constant (koff) of 0.000155 s⁻¹ and an on-rate (kon) of 6500 M⁻¹ s⁻¹.

The target in a further test is Mouse Serum Albumin (mouse) (UniProt P07724). The test is described as follows: BLI (Octet Red), MSA on sensor tips, VH domain in solution, 1:1 fit.
Sequence of UniProt P07724 (P07724 25-608 limits assumed): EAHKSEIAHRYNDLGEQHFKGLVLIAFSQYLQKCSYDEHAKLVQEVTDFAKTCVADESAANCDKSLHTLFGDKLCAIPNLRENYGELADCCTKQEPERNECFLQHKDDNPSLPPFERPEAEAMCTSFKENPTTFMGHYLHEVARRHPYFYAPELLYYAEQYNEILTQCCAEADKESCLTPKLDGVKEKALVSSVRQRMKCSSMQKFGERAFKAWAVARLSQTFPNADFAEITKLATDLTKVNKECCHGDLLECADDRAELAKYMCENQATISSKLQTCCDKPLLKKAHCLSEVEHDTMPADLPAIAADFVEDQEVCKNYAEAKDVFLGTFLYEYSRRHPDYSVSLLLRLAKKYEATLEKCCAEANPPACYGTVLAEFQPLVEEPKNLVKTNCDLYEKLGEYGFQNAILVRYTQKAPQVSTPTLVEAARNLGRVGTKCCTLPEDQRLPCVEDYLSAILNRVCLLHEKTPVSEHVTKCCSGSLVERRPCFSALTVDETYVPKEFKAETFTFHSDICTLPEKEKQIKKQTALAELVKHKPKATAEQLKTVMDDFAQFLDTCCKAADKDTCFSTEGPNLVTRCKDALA
Take B1: the equilibrium dissociation constant (Kd) was determined as 39.3 nM, the koff stood at 0.000226 s⁻¹ and the on-rate constant (kon) came out at 5750 M⁻¹ s⁻¹.

On to B2, for which the Kd turned out to be 6.32 nM, the koff is 5.42e-05 s⁻¹ and the on-rate constant (kon) was found to be 8570 M⁻¹ s⁻¹.

As to B3, the Kd is 12.6 nM, the koff was found to be 0.000105 s⁻¹ and the on-rate constant (kon) came out at 8340 M⁻¹ s⁻¹.

For B4, the Kd stood at 9.61 nM, the off-rate (koff) was determined as 7.88e-05 s⁻¹ and the on-rate constant (kon) is 8200 M⁻¹ s⁻¹.

As to B5, the Kd came to 31.8 nM, the koff stood at 0.000218 s⁻¹ and the kon was 6870 M⁻¹ s⁻¹.

For the origin of these results see US20140186365A1.
